Measurements taken from patent publication US20190092862A1 (GENERON SHANGHAI, published 2019).

T1: human EpCAM on SW480 cells (human, UniProt P16422 24-314)
T1 construct: whole, on cells; also called SW480 cells expressing human EpCAM; human colon cancer cell line SW480
T1 sequence (looked up): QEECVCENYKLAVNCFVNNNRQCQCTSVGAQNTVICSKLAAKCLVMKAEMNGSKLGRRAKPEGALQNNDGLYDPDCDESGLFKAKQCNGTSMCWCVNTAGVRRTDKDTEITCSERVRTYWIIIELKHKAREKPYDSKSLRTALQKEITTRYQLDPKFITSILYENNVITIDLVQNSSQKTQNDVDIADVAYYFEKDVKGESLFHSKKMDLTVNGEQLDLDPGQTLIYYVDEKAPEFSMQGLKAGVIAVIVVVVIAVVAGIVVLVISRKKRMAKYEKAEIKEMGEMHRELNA

T2: huEpCAM.Fc (human EpCAM antigen construct) (human, UniProt P16422 24-265, limits assumed)
T2 construct: not shown: human IgG Fc
T2 sequence (looked up): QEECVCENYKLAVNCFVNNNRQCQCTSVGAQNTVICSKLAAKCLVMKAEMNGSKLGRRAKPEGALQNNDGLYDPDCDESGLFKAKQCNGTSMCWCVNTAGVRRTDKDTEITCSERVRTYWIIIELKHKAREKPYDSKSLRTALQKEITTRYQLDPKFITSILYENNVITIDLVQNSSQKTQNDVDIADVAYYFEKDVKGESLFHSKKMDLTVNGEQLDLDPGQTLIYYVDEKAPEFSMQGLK

T3: cynoCD3ε AA 1-27.Fc (cynomolgus CD3 antigen construct) (cynomolgus monkey; human, UniProt Q95LI5 22-48)
T3 construct: range 1-27; not shown: human IgG Fc
T3 chain (looked up): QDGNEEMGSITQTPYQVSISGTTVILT


Key:
[1] = biological target: T1, human EpCAM on SW480 cells; assay: flow cytometry on SW480 cells expressing human EpCAM
Protocol: (§1) SW480 cells and CyEpCAM-CHO cells were trypsinized with 0.25% Trypsin-EDTA (Gibco), resuspended with a FACS buffer. […] Cells were then washed with the FACS buffer and resuspended in 50 μL FACS buffer. Mouse anti-Human IgG Fab Secondary Antibody PE conjugate(Invitrogen) were added, and allowed for incubation at 4° C. for 30 min. 150 μL FACS buffer was finally added, and the samples were analyzed using ACCURI® C6 Cytometer (BD Biosciences).

[2] = biological target: T2, huEpCAM.Fc (human EpCAM antigen …); assay: BLI (Octet QKe), antigen-Fc captured on AHC biosensor
Protocol: (§2) The expressions of the antigen constructs is described in U.S. Pat. No. 8,846,042. The antigen constructs were diluted to 0.02 mg/mL with dilution(PBS, 0.1% BSA, 0.02% Tween-20, 0.05% NaN3), and then immobilized on an anti-hIgG Fc capture (AHC) biosensor. […] The control wells containing only PBS were also set up. The detection results were analyzed using ForteBio Data Acquisition and ForteBio Data Analysis software.

[3] = biological target: T4, cynomolgus monkey EpCAM on transfected CHO cells (CyEpCAM-CHO) (cynomolgus monkey); assay: flow cytometry on CHO cells expressing cynomolgus monkey EpCAM (CyEpCAM-CHO)
T4 construct: whole, on cells; also called CHO cells expressing cynomolgus monkey EpCAM on the cell surface
T4 sequence (Q1WER1 24-314): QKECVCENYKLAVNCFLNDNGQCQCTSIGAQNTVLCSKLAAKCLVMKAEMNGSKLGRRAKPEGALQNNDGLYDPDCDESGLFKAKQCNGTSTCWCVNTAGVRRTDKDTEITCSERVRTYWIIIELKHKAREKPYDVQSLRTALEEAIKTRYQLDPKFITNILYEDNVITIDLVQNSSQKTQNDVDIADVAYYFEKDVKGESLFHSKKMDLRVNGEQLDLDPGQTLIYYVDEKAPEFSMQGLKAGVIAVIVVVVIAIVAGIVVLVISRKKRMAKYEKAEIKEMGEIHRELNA
Protocol: as §1

[4] = biological target: T2, huEpCAM.Fc (human EpCAM antigen …); assay: BLI (Octet QKe), antigen-Fc captured on AHC biosensor, ITAB1002 in solution
Protocol: as §2

[5] = biological target: cynoEpCAM.Fc (cynomolgus EpCAM antigen construct) (cynomolgus monkey; human); assay: as above
Protocol: as §2

[6] = biological target: T3, cynoCD3ε AA 1-27.Fc (cynomolgus CD3 …); assay: as above
Protocol: as §2

human CD3 on human PBMC = biological target: T5, human CD3 on human PBMC (human, UniProt P07766 23-207); assay: flow cytometry (FACS) on human PBMC, detection with PE mouse anti-human lambda light chain, co-staining with CD4 antibody; y axis Binding rate (%)
T5 construct: whole, on cells; also called hPBMC; huPBMC
T5 sequence (P07766 23-207): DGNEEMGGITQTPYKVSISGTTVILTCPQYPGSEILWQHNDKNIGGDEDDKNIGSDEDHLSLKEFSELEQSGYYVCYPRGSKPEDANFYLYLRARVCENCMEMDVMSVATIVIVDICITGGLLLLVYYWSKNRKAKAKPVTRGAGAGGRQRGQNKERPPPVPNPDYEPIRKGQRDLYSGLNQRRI
Protocol: Cells were washed with the FACS buffer once, resuspended in 50 μL FACS buffer, supplemented with CD4 Antibody (RFT-4g) APC-Cy7® conjugate(Invitrogen) and PE Mouse Anti-Human Light Chain […], (BD Pharmingen™), and incubated at room temperature for 45 min. 150 μL FACS buffer was finally added, and the samples were analyzed using ACCURI® C6 Cytometer (BD Biosciences).

Binder | EC50 [1] | Kd [2] | koff [2] | kon [2] | EC50 [3] | Kd [4] | Kd [5] | Kd [6] | EC50 (read off the curve) (human CD3 on human PBMC)
ITAB1002 (exemplary EpCAM×CD3 Fab fusion protein) (bispecific antibody, An anti-EpCAM scFv is fused to the N-terminus of each chain of an anti-CD3 Fab; there is no Fc; also called EpCAM x CD3 Fab fusion protein; ITB1002) heavy: EVQLVESGGGLVQPGGSLRLSCAASGFTFSNYWMSWVRQAPGKGLEWVANIKQDGSEKFYADSVKGRFTISRDNAKNSLYLQMNSLRAEDTAVYYCARVGPSWEQDYWGQGTLVTVSAGGGGSGGGGSGGGGSGAQSVLTQPPSVSGAPGQRVTISCTGSSSNIGSYYGVHWYQQLPGTAPKLLIYSDTNRPSGVPDRFSGSKSGTSASLAITGLQAEDEADYYCQSYDKGFGHRVFGGGTKLTVLGGEVQLVESGGGLVQPGGSLRLSCAASGFTFNTYAMNWVRQAPGKGLEWVARIRSKYNNYATYYADSVKDRFTISRDDSKNTLYLQMNSLRAEDTAVYYCVRHGNFGNSYVSWFAYWGQGTMVTVSSASTKGPSVFPLAPSSKSTSGGTAALGCLVKDYFPEPVTVSWNSGALTSGVHTFPAVLQSSGLYSLSSVVTVPSSSLGTQTYICNVNHKPSNTKVDKKVEPKSCPPCS light: EVQLVESGGGLVQPGGSLRLSCAASGFTFSNYWMSWVRQAPGKGLEWVANIKQDGSEKFYADSVKGRFTISRDNAKNSLYLQMNSLRAEDTAVYYCARVGPSWEQDYWGQGTLVTVSAGGGGSGGGGSGGGGSGAQSVLTQPPSVSGAPGQRVTISCTGSSSNIGSYYGVHWYQQLPGTAPKLLIYSDTNRPSGVPDRFSGSKSGTSASLAITGLQAEDEADYYCQSYDKGFGHRVFGGGTKLTVLGGQAVVTQEPSLTVSPGGTVTLTCRSSTGAVTTSNYANWVQQKPGQAPRGLIGGTNKRAPGTPARFSGSLLGGKAALTLSGVQPEDEAEYYCALWYSNLWVFGGGTKLTVLGQPKAAPSVTLFPPSSEELQANKATLVCLISDFYPGAVTVAWKADSSPVKAGVETTTPSKQSNNKYAASSYLSLTPEQWKSHRSYSCQVTHEGSTVEKTVAPTECPPCS | 0.411 µg/mL | 2.49 nM | 4.98e-05 s⁻¹ | 20000 M⁻¹ s⁻¹ | 0.108 µg/mL | 3.49 nM | 4.71 nM | 15.6 nM | ~0.1 µg/mL
ITAB1012 (EpCAM×CD3 Fab fusion protein with a different EpCAM scFv) (bispecific antibody, Its EpCAM scFv has different HVRs from that of ITAB1002; It has the same anti-CD3 Fab and was transiently expressed; also called EpCAMA×CD3 Fab fusion protein) heavy: EVQLVESGGGLVQPGGSLRLSCAASGFTFSNYWMSWVRQAPGKGLEWVANIKQDGSEKFYVDSVKGRFTISRDNAKNSLYLQMNSLRAEDMAVYYCARVGGAWELGYWGQGTLVTVSAGGGGSGGGGSGGGGSGAQSVLTQPPSVSGAPGQRVTISCTGSSSNIGSYYGVHWYQQLPGTAPKLLIYSDTNRPSGVPDRFSGSKSGTSASLAITGLQAEDEADYYCQSYDSSLSGRVFGGGTKLTVLGGEVQLVESGGGLVQPGGSLRLSCAASGFTFNTYAMNWVRQAPGKGLEWVARIRSKYNNYATYYADSVKDRFTISRDDSKNTLYLQMNSLRAEDTAVYYCVRHGNFGNSYVSWFAYWGQGTMVTVSSASTKGPSVFPLAPSSKSTSGGTAALGCLVKDYFPEPVTVSWNSGALTSGVHTFPAVLQSSGLYSLSSVVTVPSSSLGTQTYICNVNHKPSNTKVDKKVEPKSCPPCS light: EVQLVESGGGLVQPGGSLRLSCAASGFTFSNYWMSWVRQAPGKGLEWVANIKQDGSEKFYVDSVKGRFTISRDNAKNSLYLQMNSLRAEDMAVYYCARVGGAWELGYWGQGTLVTVSAGGGGSGGGGSGGGGSGAQSVLTQPPSVSGAPGQRVTISCTGSSSNIGSYYGVHWYQQLPGTAPKLLIYSDTNRPSGVPDRFSGSKSGTSASLAITGLQAEDEADYYCQSYDSSLSGRVFGGGTKLTVLGGQAVVTQEPSLTVSPGGTVTLTCRSSTGAVTTSNYANWVQQKPGQAPRGLIGGTNKRAPGTPARFSGSLLGGKAALTLSGVQPEDEAEYYCALWYSNLWVFGGGTKLTVLGQPKAAPSVTLFPPSSEELQANKATLVCLISDFYPGAVTVAWKADSSPVKAGVETTTPSKQSNNKYAASSYLSLTPEQWKSHRSYSCQVTHEGSTVEKTVAPTECPPCS | – | 47.8 nM | 0.00647 s⁻¹ | 135000 M⁻¹ s⁻¹ | – | – | – | – | –
